Experimental data: patent US6825167

How the values were obtained:
[1] = target: αvβ3 integrin (human) (UniProt P06756); experiment: attachment of αvβ3-expressing WM35 cells to wells coated at 1 nmole/well, Cell Counting Kit-8
[2] = target: αvβ3 integrin (human) (UniProt P06756); experiment: cell-based or functional assay

Sequence of UniProt P06756 (P06756 31-1048, chain 1 of 2): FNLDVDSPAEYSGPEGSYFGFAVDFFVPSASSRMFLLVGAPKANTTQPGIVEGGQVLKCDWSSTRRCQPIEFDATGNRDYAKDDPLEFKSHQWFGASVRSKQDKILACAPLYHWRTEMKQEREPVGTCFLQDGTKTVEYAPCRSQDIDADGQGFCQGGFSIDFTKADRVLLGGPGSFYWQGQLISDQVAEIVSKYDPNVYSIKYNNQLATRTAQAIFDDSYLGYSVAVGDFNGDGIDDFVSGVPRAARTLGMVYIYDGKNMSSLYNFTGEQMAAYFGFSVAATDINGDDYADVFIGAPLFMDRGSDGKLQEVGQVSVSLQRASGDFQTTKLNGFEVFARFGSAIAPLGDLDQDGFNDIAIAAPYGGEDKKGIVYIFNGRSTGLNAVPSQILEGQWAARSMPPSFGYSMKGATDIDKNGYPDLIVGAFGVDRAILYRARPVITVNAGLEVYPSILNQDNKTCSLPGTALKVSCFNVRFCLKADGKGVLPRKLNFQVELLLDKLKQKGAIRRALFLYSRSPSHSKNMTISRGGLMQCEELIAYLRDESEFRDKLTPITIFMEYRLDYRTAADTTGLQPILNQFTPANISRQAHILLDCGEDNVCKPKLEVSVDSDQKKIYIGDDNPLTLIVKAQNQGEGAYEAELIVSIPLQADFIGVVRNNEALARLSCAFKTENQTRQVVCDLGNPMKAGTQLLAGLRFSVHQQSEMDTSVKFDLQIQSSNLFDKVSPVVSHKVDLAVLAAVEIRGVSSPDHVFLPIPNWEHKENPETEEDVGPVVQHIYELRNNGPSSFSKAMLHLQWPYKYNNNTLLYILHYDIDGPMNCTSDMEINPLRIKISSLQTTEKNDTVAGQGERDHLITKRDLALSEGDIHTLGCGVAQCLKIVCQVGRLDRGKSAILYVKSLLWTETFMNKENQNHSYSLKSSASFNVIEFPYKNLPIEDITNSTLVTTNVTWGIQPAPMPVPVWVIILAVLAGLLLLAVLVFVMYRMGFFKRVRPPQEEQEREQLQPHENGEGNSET
Sequence of UniProt P06756 (P05106 27-788, chain 2 of 2, further chain): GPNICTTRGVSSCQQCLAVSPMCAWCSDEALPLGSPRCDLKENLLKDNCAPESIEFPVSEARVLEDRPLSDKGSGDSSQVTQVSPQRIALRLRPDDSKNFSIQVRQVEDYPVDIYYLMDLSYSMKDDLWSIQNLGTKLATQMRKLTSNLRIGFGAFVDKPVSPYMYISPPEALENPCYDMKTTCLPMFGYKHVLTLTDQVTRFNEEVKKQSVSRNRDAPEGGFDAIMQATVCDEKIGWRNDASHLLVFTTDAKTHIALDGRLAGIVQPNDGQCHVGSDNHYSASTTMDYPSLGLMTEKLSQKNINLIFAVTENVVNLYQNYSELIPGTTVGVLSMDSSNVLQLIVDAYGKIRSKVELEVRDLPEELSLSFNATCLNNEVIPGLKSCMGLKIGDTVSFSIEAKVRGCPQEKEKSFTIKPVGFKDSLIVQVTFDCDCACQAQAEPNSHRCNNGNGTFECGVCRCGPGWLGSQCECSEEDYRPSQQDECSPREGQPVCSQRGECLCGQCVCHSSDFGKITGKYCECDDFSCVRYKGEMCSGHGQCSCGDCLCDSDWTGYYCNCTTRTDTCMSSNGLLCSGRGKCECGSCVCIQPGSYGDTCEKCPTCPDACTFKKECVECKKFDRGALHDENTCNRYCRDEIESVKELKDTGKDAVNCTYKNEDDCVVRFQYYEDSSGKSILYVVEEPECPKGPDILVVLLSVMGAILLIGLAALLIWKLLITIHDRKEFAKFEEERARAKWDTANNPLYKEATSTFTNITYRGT

Substance	percent of cells attached (100% = gelatin-coated wells) [1]	HUVEC attachment to coated wells (100% = gelatin-coated wells) [2]	direct binding of [125I]-RGD-endostatin to HUVEC (pmole per 10^6 cells) [2]	increase of HUVEC attachment over native endostatin [2]
RGD-human endostatin (from UniProt P39060 1572-1754)	60%	80%	1.2 pmol	40%
human endostatin (from UniProt P39060 1572-1754)	18%	–	–	–
human endostatin-RGD (from UniProt P39060 1572-1754)	–	80%	–	40%
